# In patent US7537764:
# B1: SC04-353 (scFv)
# scFv: EVQLVQSGGGVVQPGRSLRLSCAASGFTFSNYAMHWVRQAPGKGLEWVAVISYDGGNKYYADSVKGRFTMSRDNSKNTLYLQMNSLRAEDTAVYYCARDFWSGYSMVDSYYYYMDVWGKGTTVTVSSGTGGSGGTGSGTGGSTETTLTQSPGTLSLSPGERATLSCRASQSVSNTFLAWYQQKPGQAPRLLIYGASSRATGIPDRFSGSGSGTDFTLTISRLEPEDFAAYYCQQYGSSLTFGPGTKVDIKR
# B2: SC04-374 (scFv)
# scFv: QVTLKESGPTLVKPTQTLTLTCTFSGFSLSTSGVGVGWIRQPPGKALEWLAVIYWNDDKLYRPSLKSRLTITKDTSKNQVVLTMTKMDPVDTATYYCAHRHRYYDISGYYRLFSDAFDIWGQGTMVTVSSGTGGSGGTGSGTGGSTQSVVTQPPSVSGAPGQRVTISCTGSSSNIGAGYDVHWYQQLPGTAPKLLIYGNSNRPSGVPDRFSGSKSGTSASLAITGLQAEDEADYYCQSYDSSLSGSVFGGGTKLTVLG
# B3: SC04-361 (scFv)
# scFv: EVQLVQSGAEVKKPGESLKISCKASGFSFSTYWIGWVRQMPGKGLEWMGIIYPADSDTRYSPSFQGQVTISADKSISTAYLQWSSLKASDTAMYYCARLRGPYYDFWNGYRETHDAFNVWGQGTMVTVSSGTGGSGGTGSGTGGSTDVVMTQSPDSLAVSLGERATINCKSSQNILDNSDNKNFLAWYQQKPGQPPKLLIYWASARESGVPDRFSGSGSGTDFTLTISSLQAEDVALYYCQQYYNTPITFGQGTRLEIKR
# Target: whole inactivated rabies virus (rabies virus)
# Experiment: phage ELISA on coated whole inactivated rabies virus
row,Binder,OD 492 nm
1,B1,0.057 OD
2,B2,0.056 OD
3,B3,0.059 OD
